Key:
hCTLA4 Nhis T31A = experiment: ELISA: antigen coated at 1.0 µg/mL, huJS007-47 2.5-fold dilutions from 1000 to 0.042 ng/mL, HRP goat anti-human IgG (Fc), OD 450-620 nm; unit from the axis 'Log:ng/mL'
Description: (§1) The huCTLA-4 mutants used in the ELISA assays included non-mutated HXT huCTLA4 his, and mutated huCTLA4 N-his P27A, huCTLA4 N-his G28A, huCTLA4 N-his K29A and huCTLA4 N-his T31A. HuCTLA-4 his and its mutants were diluted with PBS (Hyclone) to 1.0 μg/mL, and a plate was coated with the dilution, incubated in an incubator at 37° C. for 90 min, washed and then blocked with 2% BSA. After the plate was washed, the monoclonal antibody huJS007-47 (serially diluted 2.5-fold with 2% BSA from 1000 ng/mL to 0.042 ng/mL) was added. The plate was incubated at 37° C. for 60 min and washed. A 1:5000 diluted HRP-conjugated goat anti-human antibody IgG (Fc specific) (Sigma, Catalog No. A0170) was used for detection. The plate was incubated at 37° C. for 60 min and then incubated with HRP substrate TMB (Sigma, Catalog No. T2885) at 37° C. for 15 min for color development. Finally, 2 M of hydrochloric acid was added to terminate the color development; during the addition, bubbles were avoided. Reading (wavelength: 450/620 nm) was done within 10 min using a microplate reader.

huCTLA4 N-his K29A = target: T1, huCTLA4 N-his K29A (human, UniProt P16410 37-162); experiment: as above
T1 construct: … changed to …; not shown: N-terminal his-tag
Description: as §1

[1] = target: T2, HXT huCTLA4 his (non-mutated) (human, UniProt P16410 37-162); experiment: as above
T2 construct: not shown: his-tag
T2 sequence: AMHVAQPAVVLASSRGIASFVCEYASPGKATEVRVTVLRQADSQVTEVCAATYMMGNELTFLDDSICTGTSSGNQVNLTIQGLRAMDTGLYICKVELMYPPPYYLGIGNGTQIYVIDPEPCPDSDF
Description: as §1

huCTLA4 N-his P27A = target: T3, huCTLA4 N-his P27A (human, UniProt P16410 37-162); experiment: as above
T3 construct: … changed to …; not shown: N-terminal his-tag
Description: as §1

huCTLA4 N-his G28A = target: T4, huCTLA4 N-his G28A (human, UniProt P16410 37-162); experiment: ELISA: huCTLA4 N-his G28A coated at 1.0 µg/mL, huJS007-47 2.5-fold dilutions from 1000 to 0.042 ng/mL, HRP goat anti-human IgG (Fc), OD 450-620 nm
T4 construct: … changed to …; not shown: N-terminal his-tag
Description: as §1

EC50 (hCTLA4 Nhis T31A): 0.0136 µg/mL
EC50 (huCTLA4 N-his K29A): 0.0467 µg/mL
EC50 [1]: 0.0136 µg/mL
EC50 (huCTLA4 N-his P27A): 0.0333 µg/mL
binding result (huCTLA4 N-his G28A): no binding (tested: 1000 ng/mL (log 3))
B1: huJS007-47 (antibody, human IgG1, kappa, V domains shown)
VH: QVQLQESGPGLVKPSQTLSLTCTVSAYSITSGYYWNWIRQHPGKGLEWIGYIGYDGSNNYNPSLKSRVTISRDTSKNQFSLKLSSVTAADTAVYYCARDYYSGYFDSWGQGTTLTVSS
VL: DIQMTQSPSSLSASVGDRVTITCRASQNVGTYVAWYQQKPGKVPKPLIYSTSYRYSGVPSRFSGSGSGTDFTLTISSLQPEDVATYFCHQYDTYPLTFGAGTKLELKR
notes: also called JS007 antibody; monoclonal antibody huJS007-47
